We go through 24 molecules from US20250361288A1 (Gilead, published 2025).

Broadly, the EC50 is the midpoint of the concentration-response curve.

The target of assay [1] is T1, mouse HVEM extracellular domain fused with an Fc fragment at the C-terminus (mouse, UniProt Q80WM9 39-206, limits assumed).
T1 construct: extracellular domain; Bought; also called mHVEM; not shown: Fc fragment at the C-terminus
T1 sequence (looked up): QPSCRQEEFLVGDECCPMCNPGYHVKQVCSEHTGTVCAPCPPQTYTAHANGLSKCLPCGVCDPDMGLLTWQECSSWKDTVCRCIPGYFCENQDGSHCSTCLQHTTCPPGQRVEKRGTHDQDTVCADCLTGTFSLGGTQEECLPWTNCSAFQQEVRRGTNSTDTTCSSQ
The assay is described as follows: phage ELISA. As for the experimental part: (§1) Individual clones from the fourth selection round were grown in 96-well deep well blocks in 100 μl of 2YT broth supplemented with 50 μg/ml ampicillin at 37° C. and 220 rpm for 5 hours. Then, 5 μl of helper phages were added to each well and incubated at 37° C. for 30 minutes. After centrifuging at 3,000 rpm for 10 minutes, the cells were resuspended and grown overnight in 150 μl/well of 2YT broth supplemented with 50 μg/ml ampicillin and 50 μg/ml kanamycin.
(§2) For the ELISA screening, 96-well ELISA plates were coated with target proteins (1 μg/ml in PBS) at 4° C. overnight and then blocked with 2% BSA for 2 hours at room temperature. The supernatant containing phage particles was added to the plates and incubated at room temperature for 1 hour. After incubation, the plates were washed five times with PBST. HRP (horseradish peroxidase) conjugated anti-M13 antibody (Sino Biological, China) was added to the wells and incubated at room temperature for 1 hour. Following another round of washing five times with PBST, 50 μl of TMB (3,3′, 5,5″-tetramethylbenzidine, #34029, ThemoFisher) was added to each well. After 5 minutes, the reaction was stopped by adding 50 μl stop solution (#C1058, Solarbio, China). The absorbance at 450 nm (OD450) was measured using a plate reader (SpectraMax M5, Molecule Devices). Wells coated with BSA were used as negative controls. Phage clones with an ELISA score ratio (target/BSA)>3 were considered positive clones.
In general terms: In an ELISA, binding on a coated surface is turned into a signal by an enzyme label.

The target of assay [2] is T2, human HVEM extracellular domain fused with an Fc fragment at the C-terminus (human, UniProt Q92956 39-202).
T2 construct: extracellular domain; Bought; also called hHVEM; not shown: Fc fragment at the C-terminus
T2 sequence (looked up): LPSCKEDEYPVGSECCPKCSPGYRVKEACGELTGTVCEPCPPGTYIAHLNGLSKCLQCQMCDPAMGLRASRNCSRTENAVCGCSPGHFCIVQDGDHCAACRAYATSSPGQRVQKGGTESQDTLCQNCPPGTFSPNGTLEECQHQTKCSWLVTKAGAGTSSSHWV
As to the kind of experiment: ELISA on coated target-Fc. As for the experimental part: (§3) Nunc MaxiSorp 96-well plates (Thermofisher) were coated with target proteins (1 μg/ml), and then blocked with 2% BSA-PBS buffer for one hour. Serial dilutions of the LIGHT muteins were added with a maximum concentration of 200 ng/ml. The plates were incubated for one hour, washed four times with PBST, and then incubated with mouse anti-His tag antibody (#105327, Sino Biological) for 1 hour. The plates were further incubated with HRP-conjugated goat anti-mouse secondary antibody (#SSA006, Sino Biological) before being washed three times with PBST and treated with TMB substrate (#34029, ThermoFisher). The plates were read at 450 nm on a SpectraMax M5 microplate reader (Molecule Devices). The ELISA results were analyzed using GraphPad Prism 9.0 software and the EC50s (half maximal effective concentration) were summarized in Table 5-1 and Table 5-2.

Assay [3] concerns the target T3, human LTβR extracellular domain fused with an Fc fragment at the C-terminus (human, UniProt P36941 31-227).
T3 construct: extracellular domain; Bought; also called hLTβR; not shown: Fc fragment at the C-terminus
The assay is described as follows: ELISA on coated target-Fc. As for the experimental part:
as §3

Assay [4] addresses T4, mouse LTβR extracellular domain fused with an Fc fragment at the C-terminus (mouse, UniProt P50284 31-223).
T4 construct: extracellular domain; Bought; also called mLTβR; not shown: Fc fragment at the C-terminus
As to the kind of experiment: ELISA on coated target-Fc. As to the method:
as §3

For assay [5], the target named is T2, human HVEM extracellular domain fused …. As to the kind of experiment: phage ELISA. As to the method:
as §1, §2

Assay [6] deals with T4, mouse LTβR extracellular domain fused …. As to the kind of experiment: phage ELISA. As for the experimental part: as §1, §2

Numbering of substitutions follows the chain as printed. Names and notes keep the numbering of the source.

T4 sequence (P50284 31-223): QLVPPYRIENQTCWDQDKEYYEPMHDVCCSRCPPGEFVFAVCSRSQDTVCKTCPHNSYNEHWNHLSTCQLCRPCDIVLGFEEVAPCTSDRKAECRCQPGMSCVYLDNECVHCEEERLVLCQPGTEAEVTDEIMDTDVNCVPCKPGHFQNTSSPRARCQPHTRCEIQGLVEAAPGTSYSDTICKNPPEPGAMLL
T3 sequence (P36941 31-227): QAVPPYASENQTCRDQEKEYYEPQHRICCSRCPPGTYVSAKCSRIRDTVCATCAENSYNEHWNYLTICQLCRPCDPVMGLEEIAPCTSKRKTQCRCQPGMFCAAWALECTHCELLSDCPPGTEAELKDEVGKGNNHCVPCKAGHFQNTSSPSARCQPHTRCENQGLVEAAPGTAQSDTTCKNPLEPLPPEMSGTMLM

B1: LIGHT-10 (ligand)
chain: DGPAGSWEQLIQERRSHEVNPAAHLTGANSSLTGSGGPLLWETQLGLAFLRGLSYHDGALVVTKAGYYYIYSKVQLSGVGCPLGLASPITHGLYKRTPRYPEELELLVSQQSPCGRATSSSRVWWDSSFLGGVVHLEAGEKVVVRVSDERLVRLRDGTRSYFGAFMV
notes: Printed mutations: G150S, T161P, L220S; Soluble protein carries an N-terminal His tag
As to B1, the binding result in assay [1] was “binds”. The EC50 was 0.0467 µg/mL in assay [2], 0.0441 µg/mL in assay [3] and 0.0804 µg/mL in assay [4].

B2: LIGHT-24 (ligand)
chain: B1 chain with S77G, S87G, P88T, A117T
notes: Printed mutations: S160G, A190T, L220S; Soluble protein carries an N-terminal His tag
For B2, the binding result in assay [1], in assay [3] and in assay [4] was “binds” in each case. Besides, the concentration giving a half-maximal response (EC50) in assay [2] was determined as 0.0632 µg/mL.

B3: LIGHT-29 (ligand)
chain: B1 chain with S77G, S87N, P88T
notes: Printed mutations: S160N, L220S; Soluble protein carries an N-terminal His tag
In the case of B3, the binding result in assay [1] is “binds”. Moreover, the EC50 in assay [2] turned out to be 0.0428 µg/mL; in assay [3], 0.0452 µg/mL; in assay [4], 0.0209 µg/mL.

B4: LIGHT-27 (ligand)
chain: B1 chain with S77G, S87N, P88S, E149D
notes: Printed mutations: S160N, T161S, L220S, E222D; Soluble protein carries an N-terminal His tag
In the case of B4, the binding result in assay [1] is “binds”. For the same molecule, the half-maximal effective concentration (EC50) was 0.0504 µg/mL in assay [2], 0.0827 µg/mL in assay [3] and 0.0642 µg/mL in assay [4].

B5: LIGHT-48 (ligand)
chain: B1 chain with L47P, S77G, P88T, S147R
notes: Printed mutations: L120P, L220R; Soluble protein carries an N-terminal His tag
B5: the binding result in assay [5] and in assay [1] was “binds” each time. The EC50 worked out at 0.756 µg/mL in assay [3] and 0.42 µg/mL in assay [4].

B6: LIGHT-20 (ligand)
chain: B1 chain with S77G, S87A, P88T, E149D
notes: Printed mutations: S160A, L220S, E222D; Soluble protein carries an N-terminal His tag
In the case of B6, the binding result in assay [1] and in assay [4] was “binds” in each case. The EC50 in assay [2] was 0.0496 µg/mL; in assay [3], 0.0521 µg/mL.

B7: LIGHT-47 (ligand)
chain: B1 chain with L53M, S77G, P88T, A117V, H135Y, S147L
notes: Printed mutations: L126M, A190V, H208Y; Soluble protein carries an N-terminal His tag
Consider B7, for which the binding result in assay [5] and in assay [1] was “binds” in each case. Besides, the EC50 in assay [3] was 0.228 µg/mL; in assay [4] it was 0.0706 µg/mL.

B8: LIGHT-23 (ligand)
chain: B1 chain with S77G, S87G, P88T
notes: Printed mutations: S160G, L220S; Soluble protein carries an N-terminal His tag
Consider B8, for which the binding result in assay [1] is “binds”. Also, the results for the EC50 in assay [2], in assay [3] and in assay [4] were 0.0588 µg/mL, 0.0892 µg/mL and 0.0916 µg/mL, respectively.

B9: LIGHT-26 (ligand)
chain: B1 chain with S77G, S87H, P88T, E149Q
notes: Printed mutations: S160H, L220S, E222Q; Soluble protein carries an N-terminal His tag
Turning to B9, in assay [1], the binding result is reported as “binds”. For the same molecule, the EC50 in assay [2] was 0.0484 µg/mL; in assay [3], 0.0727 µg/mL; in assay [4], 0.0483 µg/mL.

B10: LIGHT-14 (ligand)
chain: B1 chain with T43S, S77G, L85Q, P88T, L93M, S147L
notes: Soluble protein carries an N-terminal His tag
For the molecule B10, the EC50 in assay [2] worked out at 0.03 µg/mL; in assay [4] it was 0.0249 µg/mL.

B11: LIGHT-17 (ligand)
chain: B1 chain with Q44N, S77G, P88T, H135Y, S147L
notes: Printed mutations: H208Y, Q117N; Soluble protein carries an N-terminal His tag
On to B11, for which the binding result in assay [1] is listed as “binds”. Also, the half-maximal effective concentration (EC50) is 0.0511 µg/mL in assay [2], 0.0805 µg/mL in assay [3] and 0.0442 µg/mL in assay [4].

B12: LIGHT-33 (ligand)
chain: B1 chain with S77G
notes: Printed mutations: T161P, L220S; Soluble protein carries an N-terminal His tag
As for B12, the binding result in assay [1] and in assay [6] was “binds” each time. For the same molecule, the EC50 in assay [2] was 0.0256 µg/mL; in assay [3], 0.0612 µg/mL.

B13: LIGHT-40 (ligand)
chain: B1 chain with S77G, L83P, P88T, H135Y, S147L
notes: Printed mutations: L156P, H208Y; Soluble protein carries an N-terminal His tag
As for B13, the binding result in assay [1] and in assay [6] was “binds” each time. Further, the EC50 in assay [2] was determined as 0.0503 µg/mL; in assay [3] it was 0.0959 µg/mL.

B14: LIGHT-22 (ligand)
chain: B1 chain with S77G, S87G, P88S
notes: Printed mutations: S160G, T161S, L220S; Soluble protein carries an N-terminal His tag
As for B14, the binding result in assay [1] was “binds”. In addition, the EC50 came to 0.0471 µg/mL in assay [2], 0.0686 µg/mL in assay [3] and 0.0624 µg/mL in assay [4].

B15: LIGHT-46 (ligand)
chain: B1 chain with L53M, S77G, P88T, K141E, S147L
notes: Printed mutations: L126M, K214E; Soluble protein carries an N-terminal His tag
With B15, the binding result in assay [1] and in assay [6] was “binds” each time. Further, the EC50 in assay [2] amounted to 0.0978 µg/mL; in assay [3], 0.0675 µg/mL.

B16: LIGHT-16 (ligand)
chain: B1 chain with Q44H, S77G, L85M, P88T, E140D, S147L
notes: Printed mutations: Q117H, L158M, E213D; Soluble protein carries an N-terminal His tag
Turning to B16, the binding result in assay [1] and in assay [4] was “binds” each time. Moreover, the EC50 was found to be 0.0738 µg/mL in assay [2] and 0.16 µg/mL in assay [3].

B17: LIGHT-19 (ligand)
chain: B1 chain with T63S, S77G, L83P, S87G, P88T, S147M
notes: as for B10
As to B17, the EC50 came to 0.0681 µg/mL in assay [2] and 0.468 µg/mL in assay [4].

B18: LIGHT-18 (ligand)
chain: B1 chain with V62I, S77G, L85Q, P88T, K141E, S147L, E149K
notes: as for B10
In the case of B18, the figures for the EC50 in assay [2], in assay [3] and in assay [4] were 0.0447 µg/mL, 0.0894 µg/mL and 0.0413 µg/mL, respectively.

B19: LIGHT-21 (ligand)
chain: B1 chain with S77G, S87G, S147T
notes: Printed mutations: S160G, T161P, L220T; Soluble protein carries an N-terminal His tag
In the case of B19, in assay [1], the binding result is on record as “binds”. Further, the values for the EC50 in assay [2], in assay [3] and in assay [4] were 0.0422 µg/mL, 0.0715 µg/mL and 0.134 µg/mL, respectively.

B20: LIGHT-25 (ligand)
chain: B1 chain with S77G, S87H, P88T
notes: Printed mutations: S160H, L220S; Soluble protein carries an N-terminal His tag
As to B20, the binding result in assay [1] and in assay [3] was “binds” in each case. Besides, the EC50 was 0.0542 µg/mL in assay [2] and 0.0323 µg/mL in assay [4].

B21: LIGHT-28 (ligand)
chain: B1 chain with S77G, S87N, P88T, K141E, S147L, L154M
notes: Printed mutations: S160N, K214E, L227M; Soluble protein carries an N-terminal His tag
Turning to B21, the binding result in assay [1] is “binds”. The 50% effective concentration (EC50) in assay [2] came out at 0.0873 µg/mL; in assay [3], 0.0811 µg/mL; in assay [4], 0.256 µg/mL.

B22: LIGHT-15 (ligand)
chain: B1 chain with Q44E, S77G, P88T, E102K, K141E, S147L, L154T
notes: Printed mutations: Q117E, E175K, K214E, L227T; Soluble protein carries an N-terminal His tag
Consider B22, for which the binding result in assay [1] is reported as “binds”. The EC50 in assay [2] amounted to 0.0597 µg/mL; in assay [3] it was 0.0748 µg/mL; in assay [4], 0.139 µg/mL.

B23: LIGHT-32 (ligand)
chain: B1 chain with S77G, S87R, P88T
notes: Printed mutations: S160R, L220S; Soluble protein carries an N-terminal His tag
B23: the binding result in assay [5] and in assay [1] was “binds” throughout. Further, the EC50 in assay [3] came to 0.247 µg/mL; in assay [4] it was 0.0632 µg/mL.

B24: LIGHT-30 (ligand)
chain: B1 chain with S77G, S87R, P88N
notes: Printed mutations: S160R, T161N, L220S; Soluble protein carries an N-terminal His tag
B24: the binding result in assay [1] is reported as “binds”. Moreover, the EC50 in assay [2] worked out at 0.157 µg/mL.
